One block for each binder: values may come before it.
Tests used:
Test in all cases: SPR
IL-33/sST2 complex = target: T1, IL-33/sST2 complex (human)
T1 chain 1: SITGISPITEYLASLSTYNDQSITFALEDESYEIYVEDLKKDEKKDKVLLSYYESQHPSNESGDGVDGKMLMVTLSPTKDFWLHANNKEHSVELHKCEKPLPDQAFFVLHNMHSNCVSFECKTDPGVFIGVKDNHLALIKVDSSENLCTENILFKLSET
T1 chain 2: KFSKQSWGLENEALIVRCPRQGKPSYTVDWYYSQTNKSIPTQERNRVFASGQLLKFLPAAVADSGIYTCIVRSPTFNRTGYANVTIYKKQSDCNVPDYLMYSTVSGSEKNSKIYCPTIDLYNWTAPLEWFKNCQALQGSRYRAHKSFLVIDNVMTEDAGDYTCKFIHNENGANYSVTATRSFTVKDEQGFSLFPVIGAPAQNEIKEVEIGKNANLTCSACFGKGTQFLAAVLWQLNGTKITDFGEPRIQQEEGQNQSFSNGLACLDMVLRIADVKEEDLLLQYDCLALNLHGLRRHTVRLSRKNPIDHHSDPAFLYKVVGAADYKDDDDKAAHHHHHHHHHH

reduced IL-33 = target: T2, reduced IL-33 (human)
T2 chain: T1 chain 1

oxidized IL-33 = target: T3, oxidized IL-33 (human)
T3 chain: T1 chain 1

- Kd (IL-33/sST2 complex): 26.5 nM
- Kd (reduced IL-33): 0.895 nM
B1: AB1070008 (antibody, V domains shown)
VH: QVQLQQSGPELVKPGASVKTSCKASGYSFTSYYIHWVKQRPGQGLEWIGWIYPGSGNTKYNEKFKGKATLTADTSSSTAFMQLSSLTSEDSAVYYCASGFHYYGRMDYWGQGTTLTVSS
VL: DIQMTQSPSSLSASLGERVSLTCRASQEISGYLSWLQQKPDGTIKRLIYSTSTLDSGVPKSFSGSRSGSDYSLTISSLESEDFADYYCLQYASSPWTFGGGTKLEIK

- Kd (oxidized IL-33): 1.83 nM
B2: AB1070141 (antibody, V domains shown)
VH: QVQLQQSGAELMKPGASVKLSCKATGYIVTDYWIEWVKQRPGHGLEWIGEILPRSDSTNYNEKFKVRATFTADTSSNTAYMQLSSLTTEDSAIYYCASHYHYDGSLFVYWGQGTLVTVSS
VL: DIVMSQSPSSLAVSAGEKVTMSCKSSQSLLNSRTRKNYLAWYQQKPGQSPKLLIYWASTRESGVPDRFTGSGSGTDFTLTISSVQAEDLAVYYCKQSYSLPTFGGGTKLEIK

- Kd (reduced IL-33): 0.068 nM
B3: AB1070019 (antibody, V domains shown)
VH: QVQLQQSGAELAKPGASVKMSCKASGYTFTRYWMHWIKQRPGQGLEWIGYINPYSGYTEYNQKFKDKATLTADKSSSTAYMQLSSLTSEDSAVYYCARYSYYTYDGRGYAMDYWGQGTSVTVSS
VL: DIVMTQSQKFMSTSVGDRVSVTCKASQNVGTNVAWYQQKPGQSPKALIYSASYRYSGVPDRFTGSGSGTDFTLTISNVQSEDLAEYFCQQYNSYPFTFGSGTKLEIK

Source: US20260348975 (published 2026)
